Data set [1] concerns the target T1, Agrocybe aegerita peroxygenase AaeUPO1 variant SoLo (JaWa + F191S: V57A, L67F, V75I, F191S, G241D, I248V, R257K, F311L), SEQ ID NO: 42 (Cyclocybe aegerita, UniProt B9W4V6, F234S/F354L/G284D/I291V/L110F/R300K/V100A/V118I).
T1 sequence (B9W4V6 44-371 V100A/L110F/V118I/F234S/G284D/I291V/R300K/F354L): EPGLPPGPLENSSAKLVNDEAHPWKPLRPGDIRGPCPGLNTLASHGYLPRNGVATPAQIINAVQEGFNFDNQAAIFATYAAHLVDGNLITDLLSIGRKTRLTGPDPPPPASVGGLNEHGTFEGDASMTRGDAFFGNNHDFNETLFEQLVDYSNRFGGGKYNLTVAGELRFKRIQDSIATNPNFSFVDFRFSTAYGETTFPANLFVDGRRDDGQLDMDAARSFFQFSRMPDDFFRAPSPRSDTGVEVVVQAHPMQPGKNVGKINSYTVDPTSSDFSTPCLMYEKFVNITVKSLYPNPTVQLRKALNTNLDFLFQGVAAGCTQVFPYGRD
In words: Kinetic constants, SoLo variant. The conditions noted are these: SoLo vs parental JaWa, ABTS.
Description: In order to calculate the values of Km and kcat, values of Vmax were represented at substrate concentrations and the hyperbole function was adjusted (using SigmaPlot 10.0, wherein the parameter a is equal to kcat and the parameter b, to Km).

The nature of data set [2]: Thermostability assay (T50), culture supernatants, residual activity with ABTS. The format is physicochemical. To be noted: versus PaDa-I variant. How it is done:
An individual S. cerevisiae colony was selected with the corresponding clone (grown in a SC drop-out minimal medium plate: 100 mL of 6.7% yeast nitrogen base, 100 mL of 19.2 g/L uracil-free amino acid supplement, 100 mL of 20% glucose, 1 mL of 25 g/L chloramphenicol and ddH2O up to 1,000 mL) was inoculated in 2 mL of selective minimal medium (as in the SC plate medium, but with 20 g of bacto agar and rafinose instead of galactose) and was incubated for 48 hour at 30° C. and 220 RPM. An aliquot of this culture was taken such that, upon inoculating it in 5 mL of new minimal medium, optical density at 600 nm would have a value of 0.25 (optical density, OD600=0.25). This starter was incubated until completing two full growth cycles (between 6 and 8 hours), at which time 1 mL of cells were taken to inoculate 9 mL of expression medium in a 100 mL flask (OD600=0.1). This culture of each clone was incubated for 72 hours at 25° C. and 220 RPM (at peak UPO activity; OD600=25-30), the cells were separated by centrifugation (10 minutes at 4,500 RPM and 4° C.) and supernatant was filtered (using a glass and nitrocellulose filter with a pore size of 0.45 μm). Appropriate dilutions of the supernatants were prepared so that aliquots of 20 μL would give rise to a linear response in kinetic mode. 50 μL of supernatant were used for each point in a temperature gradient created by means of thermocyclator, from 30 to 80° C. After incubating for 10 minutes, the aliquots were cooled in ice for 10 minute and tempered at room temperature for 5 minutes. […] The thermostability values were calculated in accordance with the ratio between the residual activities incubated at different temperatures and the value of initial activity at room temperature. The value of T50 was determined as the value of the temperature at which the protein loses 50% of it initial activity after incubating for 10 minutes.
An individual S. cerevisiae colony was selected with the corresponding clone (grown on a SC drop-out minimal medium plate: 100 mL of 6.7% yeast nitrogen base, 100 mL of 19.2 g/L uracil-free amino acid supplement, 100 mL of 20% glucose, 1 mL of 25 g/L chloramphenicol and ddH2O up to 1,000 mL), was inoculated in 3 mL of selective minimal medium (like the SC plate medium, but with 20 g of bacto agar and rafinose instead of galactose) and incubated for 48 hours at 30° C. and 220 RPM. […] The thermostability values were calculated in accordance with the ratio between the residual activities incubated at different temperatures and the value of initial activity at room temperature. The value of T50 was determined as as the temperature value at which the protein loses 50% of its initial activity after incubating for […].

The nature of data set [3]: 4-AAP assay with propranolol in the absence of ascorbic acid (peroxidase activity on the product). The format is biochemical. On the procedure: (§1) FIG. 9 Assay of 4-AAP (4-aminoantipyrine) with different pure UPO variants (AaeUPO1, PaDa-1 and JaWa). […] Each reaction was performed in triplicate.
(§2) The mother plates were centrifuged (Eppendorf 5810R centrifuge, Germany) for 10 minutes at 3,500 RPM and 4° C. 20 μL of supernatant of these mother plates were transferred to two replica daughter plates with the help of a Freedom EVO liquid-handling robot (Tecan, Switzerland).
(§3) Without ascorbic, the plates were incubated for 30 minutes and with ascorbic for 60 minutes. […] The plates were briefly agitated and absorbance measured at 530 nm, using a plate reader for such purpose ([…]ax Plus 384, Molecular Devices, USA). The values were normalised against the parental of each plate. To rule out false positives, re-screenings were carried out, in addition to a third re-screening wherein kinetic stability was determined (T50) (P. Molina-Espeja, et al. Appl. Environ. Microbiol. 2014. 80, 3496-3507).

Data set [4] in a line: Propranolol transformation reaction analysed by HPLC-PDA. The class given is biochemical. To be noted: absence of ascorbic acid. On the procedure: FIG. 13 Chromatogram showing the enzyme reactions.
(§4) The reactions were analysed by means of chromatography in reverse phase (HPLC). The equipment was composed of a tertiary pump (Varian-Agilent Technologies, USA) coupled to an autosampler (Merck Millipore, MA, USA); for the separation, a Zorbax Eclipse plus C18 column (15 cm×4.6 cm) at 40° C. was used and the detection was performed using a photodiode detector (PDA) (Varian, Agilent Technologies, USA). The mobile phase selected was a gradient from 10% methanol and 90% ddH2O (in both cases with 0.1% of acetic acid) up to 90% methanol and 10% ddH2O at a flow rate of 0.8 mL/min. The reaction was quantified at 280 nm (based on HPLC standards). […] The standard deviations were less than 5% in all cases.

Data set [5] is described as follows: 4-AAP assay with propranolol in the presence of ascorbic acid (peroxygenase activity). The format is biochemical. The conditions noted are these: propranolol, in the presence of ascorbic acid. On the procedure: as §1, §2, §3
The nature of data set [6]: Total turnover number (TTN) for synthesis of 5′-hydroxypropranolol from propranolol. The class given is biochemical. On the procedure:
FIG. 15 Calculation of the total turnover number (TTN) of AaeUPO and SoLo.
as §4

A short description of data set [7]: Turnover with 5′-hydroxypropranolol as substrate, HPLC. To be noted: 0.03 μM enzyme, 0.4 mM 5′-hydroxypropranolol, 2 mM H2O2, absence of ascorbic acid. The class given is biochemical. On the procedure:
FIG. 14 Turnover rates of AaeUPO, JaWa and SoLo. […] The disappearance of the product 5′-hydroxypropranolol can be observed due to the formation of its corresponding quinone by means of the peroxidase activity of the enzyme.
as §4

Turning to `CCn1c(=NN=c2sc3cc(S(=O)(=O)O)ccc3n2CC)sc2cc(S(=O)(=O)O)ccc21` [ABTS, 2,2′-azino-bis(3-ethylbenzothiazolin-6-sulfonic acid)], in data set [1], the “affinity to the substrate with respect to its parental” value is “three fold worse”.

B1: SoLo: JaWa variant with added mutation F191S, SEQ ID NO: 42 (protein)
chain: MKYFPLFPTLVYAVGVVAFPDYASLAGLSQQELDAIIPTLEAREPGLPPGPLENSSAKLVNDEAHPWKPLRPGDIRGPCPGLNTLASHGYLPRNGVATPAQIINAVQEGFNFDNQAAIFATYAAHLVDGNLITDLLSIGRKTRLTGPDPPPPASVGGLNEHGTFEGDASMTRGDAFFGNNHDFNETLFEQLVDYSNRFGGGKYNLTVAGELRFKRIQDSIATNPNFSFVDFRFSTAYGETTFPANLFVDGRRDDGQLDMDAARSFFQFSRMPDDFFRAPSPRSDTGVEVVVQAHPMQPGKNVGKINSYTVDPTSSDFSTPCLMYEKFVNITVKSLYPNPTVQLRKALNTNLDFLFQGVAAGCTQVFPYGRD
Take B1: the “increase in thermostability (T50) with respect to PaDa-I” value in data set [2] stood at 2 °C. Moreover, the “decrease in peroxidase activity relative to parental (JaWa)” value in data set [3] is “more than two fold”. Moreover, in data set [4] (0.03 μM enzyme, 4 mM propranolol, 2 mM H2O2), the “regioselectivity against 5′-hydroxypropranolol” value was 99%. Further, the “amount of 5′-hydroxypropranolol produced” value in data set [4] (compared among AaeUPO, PaDa-I, JaWa, SoLo) is recorded as “produce the largest amount of 5′-hydroxypropranolol”. Besides, in data set [5], the “peroxygenase activity on microplate higher than its parental (JaWa)” value was found to be 30%. In addition, the “TTNs, With ascorbic acid” value in data set [6] (0.03 μM enzyme, propranolol, 2 mM H2O2 added every 10 minutes, 4 mM ascorbic acid) is 62,000. In addition, the “TTNs, Without ascorbic acid” value in data set [6] (0.03 μM enzyme, propranolol, 2 mM H2O2 added every 10 minutes, absence of ascorbic acid) is recorded as 45,000. In data set [6] (absence of antioxidants), the “increase in TTN for synthesis of 5′-hydroxypropranolol versus wild AaeUPO” value turned out to be 15 fold. In addition, in data set [7], the “5′-hydroxypropranolol maintained without oxidising” value is listed as “approximately 50%”.

The values above are taken from patent US10876098B2, “Polynucleotide, host cell and a method to recombinantly produce the protein encoded by said polynucleotide having peroxygenative activity” (CONSEJO SUPERIOR DE INVESTIGACIONES CIENTIFICAS (CSIC), priority 2015, dated 2020).
